Tests used:
Assay in all cases: holdup assay
Design in all cases: key: below the threshold = too weak to quantify, mostly under pKd 3.1 to 4
Settings in all cases: plain residues with an end cap or a label only (N-terminal biotin on a linker: ttds)
AHNAK2, Q8IVF2 = target: AHNAK2, Q8IVF2
CNKSR3, Q6P9H4 = target: CNKSR3, Q6P9H4
DLG2_1, Q15700 = target: DLG2_1, Q15700
GIPC3, Q8TF64 = target: GIPC3, Q8TF64
INTU, Q9ULD6 = target: T1, INTU, Q9ULD6
T1 sequence (Q9ULD6 180-273, limits assumed, looked up): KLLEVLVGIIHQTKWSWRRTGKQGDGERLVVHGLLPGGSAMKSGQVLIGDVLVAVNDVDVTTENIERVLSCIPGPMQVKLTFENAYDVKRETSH

Inadl_7, Q8NI35 = target: Inadl_7, Q8NI35
Inadl_7, Q8NI35, sequence (Q8NI35 1219-1332): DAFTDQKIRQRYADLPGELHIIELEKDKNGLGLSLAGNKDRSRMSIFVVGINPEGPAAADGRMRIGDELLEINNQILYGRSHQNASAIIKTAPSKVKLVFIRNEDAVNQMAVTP

MAGI1_3, Q96QZ7 = target: MAGI1_3, Q96QZ7
MAGI1_3, Q96QZ7, sequence (Q96QZ7 638-725): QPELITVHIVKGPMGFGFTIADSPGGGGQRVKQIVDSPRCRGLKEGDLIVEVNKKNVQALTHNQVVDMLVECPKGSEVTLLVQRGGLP

MAGI1_4, Q96QZ7 = target: MAGI1_4, Q96QZ7
MAGI1_4, Q96QZ7, sequence (Q96QZ7 other isoform, or with tags, fused parts or gaps): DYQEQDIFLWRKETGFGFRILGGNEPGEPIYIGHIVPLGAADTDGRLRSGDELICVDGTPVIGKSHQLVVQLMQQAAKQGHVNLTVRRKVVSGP

MAGI1_6, Q96QZ7 = target: MAGI1_6, Q96QZ7
MAGI1_6, Q96QZ7, sequence (Q96QZ7 1146-1238): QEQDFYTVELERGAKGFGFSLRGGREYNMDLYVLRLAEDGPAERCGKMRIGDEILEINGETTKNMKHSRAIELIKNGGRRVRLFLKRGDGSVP

MPDZ_3, O75970 = target: T2, MPDZ_3, O75970
T2 sequence (O75970 372-473, limits assumed, looked up): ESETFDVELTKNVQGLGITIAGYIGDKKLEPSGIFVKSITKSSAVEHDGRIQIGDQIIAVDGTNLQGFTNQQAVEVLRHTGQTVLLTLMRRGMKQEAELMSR

NHERF1_2, O14745 = target: T3, NHERF1_2, O14745
T3 sequence (O14745 149-244, limits assumed, looked up): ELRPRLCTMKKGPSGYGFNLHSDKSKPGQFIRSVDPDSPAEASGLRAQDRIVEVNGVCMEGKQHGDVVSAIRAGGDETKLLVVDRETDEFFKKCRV

NHERF4_3, Q86UT5 = target: NHERF4_3, Q86UT5
NHERF4_3, Q86UT5, sequence (Q86UT5 325-412): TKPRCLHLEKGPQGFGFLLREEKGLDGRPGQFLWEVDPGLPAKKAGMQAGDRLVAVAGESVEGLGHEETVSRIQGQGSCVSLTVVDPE

PARD6B, Q9BYG5 = target: T4, PARD6B, Q9BYG5
T4 sequence (Q9BYG5 152-260, limits assumed, looked up): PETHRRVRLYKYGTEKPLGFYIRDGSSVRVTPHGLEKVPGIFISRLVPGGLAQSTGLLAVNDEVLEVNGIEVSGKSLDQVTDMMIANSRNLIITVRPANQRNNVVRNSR

PDLIM4, P50479 = target: PDLIM4, P50479
PDLIM4, P50479, sequence (P50479 1-83): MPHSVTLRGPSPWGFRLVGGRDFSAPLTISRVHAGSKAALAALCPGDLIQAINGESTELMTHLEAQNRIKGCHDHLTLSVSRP

PDZD8, Q8NEN9 = target: T5, PDZD8, Q8NEN9
T5 sequence (Q8NEN9 361-459, limits assumed, looked up): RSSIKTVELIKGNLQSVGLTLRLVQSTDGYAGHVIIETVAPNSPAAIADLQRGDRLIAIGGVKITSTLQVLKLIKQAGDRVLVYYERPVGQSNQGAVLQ

PDZRN3_2, Q9UPQ7 = target: T6, PDZRN3_2, Q9UPQ7
T6 sequence (Q9UPQ7 414-513, limits assumed, looked up): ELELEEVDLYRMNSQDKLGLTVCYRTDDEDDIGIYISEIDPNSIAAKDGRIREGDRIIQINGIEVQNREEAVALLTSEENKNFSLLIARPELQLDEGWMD

PTPN13_5, Q12923 = target: T7, PTPN13_5, Q12923
T7 sequence (Q12923 1877-1975, limits assumed, looked up): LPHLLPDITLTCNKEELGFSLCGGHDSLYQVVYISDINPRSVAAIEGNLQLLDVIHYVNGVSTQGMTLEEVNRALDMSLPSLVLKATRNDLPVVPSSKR

PTPN4, P29074 = target: T8, PTPN4, P29074
T8 sequence (P29074 512-599, limits assumed, looked up): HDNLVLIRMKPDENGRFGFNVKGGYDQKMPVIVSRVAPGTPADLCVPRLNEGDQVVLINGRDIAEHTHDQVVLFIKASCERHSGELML

RIMS1, Q86UR5 = target: RIMS1, Q86UR5
RIMS1, Q86UR5, sequence (Q86UR5 584-692): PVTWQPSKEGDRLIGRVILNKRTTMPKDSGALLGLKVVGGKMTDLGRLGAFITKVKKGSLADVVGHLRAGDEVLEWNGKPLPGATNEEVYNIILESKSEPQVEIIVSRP

SDCBP_1, O00560 = target: SDCBP_1, O00560
SDCBP_1, O00560, sequence (O00560 111-198): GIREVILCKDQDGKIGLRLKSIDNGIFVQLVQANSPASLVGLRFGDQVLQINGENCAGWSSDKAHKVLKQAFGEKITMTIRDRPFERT

SHANK2, Q9UPX8 = target: T9, SHANK2, Q9UPX8
T9 sequence (Q9UPX8 621-730, limits assumed, looked up): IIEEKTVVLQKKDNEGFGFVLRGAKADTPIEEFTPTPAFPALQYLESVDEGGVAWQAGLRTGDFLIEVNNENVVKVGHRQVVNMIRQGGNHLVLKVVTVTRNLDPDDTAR

SIPA1L3, O60292 = target: T10, SIPA1L3, O60292
T10 sequence (O60292 961-1052, limits assumed, looked up): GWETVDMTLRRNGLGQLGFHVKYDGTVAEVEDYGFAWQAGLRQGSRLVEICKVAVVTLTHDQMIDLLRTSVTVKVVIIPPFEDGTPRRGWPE

SYNPO2L, Q9H987 = target: T11, SYNPO2L, Q9H987
T11 sequence (Q9H987 1-98, limits assumed, looked up): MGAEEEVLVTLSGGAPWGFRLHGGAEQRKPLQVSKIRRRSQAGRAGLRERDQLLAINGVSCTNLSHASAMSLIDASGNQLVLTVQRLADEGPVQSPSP

TJP3_2, O95049 = target: T12, TJP3_2, O95049
T12 sequence (O95049 190-282, limits assumed, looked up): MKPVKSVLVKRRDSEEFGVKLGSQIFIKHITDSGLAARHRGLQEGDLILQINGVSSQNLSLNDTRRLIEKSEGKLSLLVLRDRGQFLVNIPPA

USH1C_3, Q9Y6N9 = target: T13, USH1C_3, Q9Y6N9
T13 sequence (Q9Y6N9 447-547, limits assumed, looked up): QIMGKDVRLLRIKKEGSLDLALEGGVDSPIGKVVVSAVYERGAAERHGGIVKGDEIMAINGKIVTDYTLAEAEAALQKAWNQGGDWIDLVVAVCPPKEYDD

CNKSR3, Q6P9H4, sequence (Q6P9H4 203-303): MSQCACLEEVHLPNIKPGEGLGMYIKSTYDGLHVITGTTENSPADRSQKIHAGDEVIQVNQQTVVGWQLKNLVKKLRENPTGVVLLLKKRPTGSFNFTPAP
AHNAK2, Q8IVF2, sequence (Q8IVF2 108-193): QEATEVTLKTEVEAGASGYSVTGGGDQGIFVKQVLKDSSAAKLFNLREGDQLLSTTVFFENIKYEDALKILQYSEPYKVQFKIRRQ
GIPC3, Q8TF64, sequence (Q8TF64 107-202): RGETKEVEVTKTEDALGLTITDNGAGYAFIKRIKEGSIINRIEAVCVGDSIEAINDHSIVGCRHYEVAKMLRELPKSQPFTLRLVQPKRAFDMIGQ

With SHSSKGETAV [FZD7, O75084] the pKd (AHNAK2, Q8IVF2) was 4.41, the pKd (CNKSR3, Q6P9H4) was “below the threshold” and the pKd (DLG2_1, Q15700) was 4.38. The pKd (GIPC3, Q8TF64) was “below the threshold”, the pKd (INTU, Q9ULD6) was “below the threshold” and the pKd (Inadl_7, Q8NI35) was 4.99. For the same binder, the pKd (MAGI1_3, Q96QZ7) was “below the threshold”, the pKd (MAGI1_4, Q96QZ7) was “below the threshold” and the pKd (MAGI1_6, Q96QZ7) was 4.7. For the same binder, the pKd (MPDZ_3, O75970) was “below the threshold”, the pKd (NHERF1_2, O14745) was “below the threshold” and the pKd (NHERF4_3, Q86UT5) was “below the threshold”. The pKd (PARD6B, Q9BYG5) was “below the threshold”, the pKd (PDLIM4, P50479) was “below the threshold” and the pKd (PDZD8, Q8NEN9) was “below the threshold”. The pKd (PDZRN3_2, Q9UPQ7) was “below the threshold”, the pKd (PTPN13_5, Q12923) was “below the threshold” and the pKd (PTPN4, P29074) was “below the threshold”. The pKd (RIMS1, Q86UR5) was “below the threshold”, the pKd (SDCBP_1, O00560) was “below the threshold” and the pKd (SHANK2, Q9UPX8) was “below the threshold”. The pKd (SIPA1L3, O60292) was “below the threshold”, the pKd (SYNPO2L, Q9H987) was “below the threshold” and the pKd (TJP3_2, O95049) was “below the threshold”. For the same binder, the pKd (USH1C_3, Q9Y6N9) was “below the threshold”.

For PPRQRSETQV [HPV82-E6, Q9IR59], the pKd (AHNAK2, Q8IVF2) was “below the threshold”, the pKd (CNKSR3, Q6P9H4) was “below the threshold” and the pKd (DLG2_1, Q15700) was 4.32. For the same binder, the pKd (GIPC3, Q8TF64) was “below the threshold”, the pKd (Inadl_7, Q8NI35) was “below the threshold” and the pKd (MAGI1_3, Q96QZ7) was 4.28. The pKd (MAGI1_4, Q96QZ7) was 4.2, the pKd (MAGI1_6, Q96QZ7) was 4.21 and the pKd (MPDZ_3, O75970) was “below the threshold”. For the same binder, the pKd (NHERF1_2, O14745) was “below the threshold”, the pKd (NHERF4_3, Q86UT5) was “below the threshold” and the pKd (PARD6B, Q9BYG5) was “below the threshold”. The pKd (PDLIM4, P50479) was “below the threshold”, the pKd (PDZD8, Q8NEN9) was “below the threshold” and the pKd (PDZRN3_2, Q9UPQ7) was “below the threshold”. The pKd (PTPN13_5, Q12923) was “below the threshold”, the pKd (PTPN4, P29074) was “below the threshold” and the pKd (RIMS1, Q86UR5) was “below the threshold”. For the same binder, the pKd (SDCBP_1, O00560) was “below the threshold”, the pKd (SHANK2, Q9UPX8) was “below the threshold” and the pKd (SIPA1L3, O60292) was “below the threshold”. The pKd (SYNPO2L, Q9H987) was “below the threshold”, the pKd (TJP3_2, O95049) was “below the threshold” and the pKd (USH1C_3, Q9Y6N9) was “below the threshold”.

For SRSRRRETAL [HPV33-E6, P06427], the pKd (AHNAK2, Q8IVF2) was “below the threshold”, the pKd (CNKSR3, Q6P9H4) was “below the threshold” and the pKd (DLG2_1, Q15700) was 5.13. The pKd (GIPC3, Q8TF64) was “below the threshold”, the pKd (INTU, Q9ULD6) was 4.54 and the pKd (Inadl_7, Q8NI35) was “below the threshold”. The pKd (MAGI1_3, Q96QZ7) was “below the threshold”, the pKd (MAGI1_4, Q96QZ7) was “below the threshold” and the pKd (MAGI1_6, Q96QZ7) was “below the threshold”. The pKd (MPDZ_3, O75970) was “below the threshold”, the pKd (NHERF1_2, O14745) was “below the threshold” and the pKd (NHERF4_3, Q86UT5) was “below the threshold”. For the same binder, the pKd (PARD6B, Q9BYG5) was “below the threshold”, the pKd (PDLIM4, P50479) was “below the threshold” and the pKd (PDZD8, Q8NEN9) was “below the threshold”. For the same binder, the pKd (PDZRN3_2, Q9UPQ7) was “below the threshold”, the pKd (PTPN13_5, Q12923) was “below the threshold” and the pKd (PTPN4, P29074) was 5.02. For the same binder, the pKd (RIMS1, Q86UR5) was “below the threshold”, the pKd (SDCBP_1, O00560) was “below the threshold” and the pKd (SHANK2, Q9UPX8) was “below the threshold”. The pKd (SIPA1L3, O60292) was “below the threshold”, the pKd (SYNPO2L, Q9H987) was “below the threshold” and the pKd (TJP3_2, O95049) was “below the threshold”. For the same binder, the pKd (USH1C_3, Q9Y6N9) was “below the threshold”.

SSIDLWETAL [SLC15A5, A6NIM6] was tested, and the pKd (AHNAK2, Q8IVF2) was “below the threshold”, the pKd (CNKSR3, Q6P9H4) was “below the threshold” and the pKd (DLG2_1, Q15700) was “below the threshold”. The pKd (GIPC3, Q8TF64) was “below the threshold”, the pKd (INTU, Q9ULD6) was “below the threshold” and the pKd (Inadl_7, Q8NI35) was “below the threshold”. For the same binder, the pKd (MAGI1_3, Q96QZ7) was “below the threshold”, the pKd (MAGI1_4, Q96QZ7) was “below the threshold” and the pKd (MAGI1_6, Q96QZ7) was 5.18. For the same binder, the pKd (MPDZ_3, O75970) was 4.85, the pKd (NHERF1_2, O14745) was “below the threshold” and the pKd (NHERF4_3, Q86UT5) was “below the threshold”. For the same binder, the pKd (PARD6B, Q9BYG5) was “below the threshold”, the pKd (PDLIM4, P50479) was “below the threshold” and the pKd (PDZD8, Q8NEN9) was “below the threshold”. For the same binder, the pKd (PDZRN3_2, Q9UPQ7) was “below the threshold”, the pKd (PTPN13_5, Q12923) was 4.86 and the pKd (PTPN4, P29074) was 4.84. The pKd (RIMS1, Q86UR5) was “below the threshold”, the pKd (SDCBP_1, O00560) was “below the threshold” and the pKd (SHANK2, Q9UPX8) was 5.87. The pKd (SIPA1L3, O60292) was “below the threshold”, the pKd (SYNPO2L, Q9H987) was “below the threshold” and the pKd (TJP3_2, O95049) was “below the threshold”. The pKd (USH1C_3, Q9Y6N9) was “below the threshold”.

With SGGKRKETLV [NET1, Q7Z628] the pKd (CNKSR3, Q6P9H4) was “below the threshold”, the pKd (DLG2_1, Q15700) was 4.87 and the pKd (INTU, Q9ULD6) was “below the threshold”. The pKd (Inadl_7, Q8NI35) was “below the threshold”, the pKd (MAGI1_3, Q96QZ7) was 4.91 and the pKd (MAGI1_6, Q96QZ7) was “below the threshold”. For the same binder, the pKd (MPDZ_3, O75970) was “below the threshold”, the pKd (NHERF1_2, O14745) was “below the threshold” and the pKd (NHERF4_3, Q86UT5) was “below the threshold”. The pKd (PARD6B, Q9BYG5) was “below the threshold”, the pKd (PDLIM4, P50479) was “below the threshold” and the pKd (PDZD8, Q8NEN9) was “below the threshold”. The pKd (PDZRN3_2, Q9UPQ7) was “below the threshold”, the pKd (PTPN13_5, Q12923) was “below the threshold” and the pKd (PTPN4, P29074) was 3.51. For the same binder, the pKd (RIMS1, Q86UR5) was “below the threshold”, the pKd (SDCBP_1, O00560) was “below the threshold” and the pKd (SIPA1L3, O60292) was “below the threshold”. The pKd (SYNPO2L, Q9H987) was “below the threshold” and the pKd (USH1C_3, Q9Y6N9) was “below the threshold”.

— publication PMC9482650, “Quantitative fragmentomics allow affinity mapping of interactomes” (Nature Communications, 2022)
